{"source": "paper PMC5040590", "about": "“A model for regulation by SynGAP-α1 of binding of synaptic proteins to PDZ-domain 'Slots' in the postsynaptic density” (eLife, 2016)", "target": "CaM-Sepharose 4B (calmodulin on Sepharose resin) (UniProt P62157 1-149)", "assay": "pull-down; equilibrium binding of purified synGAP (1-500 nM, 300 µl) to 50 µl CaM-Sepharose 4B, 60 min; 50 mM Tris pH 7.5, 200 mM NaCl, 5 mM TCEP, 2 mM CaCl2; bound protein by quantitative immunoblot; hyperbolic fit", "settings": "both partners purified"}
{"binder": "sr-synGAP (residues 103-725) (domain or fragment) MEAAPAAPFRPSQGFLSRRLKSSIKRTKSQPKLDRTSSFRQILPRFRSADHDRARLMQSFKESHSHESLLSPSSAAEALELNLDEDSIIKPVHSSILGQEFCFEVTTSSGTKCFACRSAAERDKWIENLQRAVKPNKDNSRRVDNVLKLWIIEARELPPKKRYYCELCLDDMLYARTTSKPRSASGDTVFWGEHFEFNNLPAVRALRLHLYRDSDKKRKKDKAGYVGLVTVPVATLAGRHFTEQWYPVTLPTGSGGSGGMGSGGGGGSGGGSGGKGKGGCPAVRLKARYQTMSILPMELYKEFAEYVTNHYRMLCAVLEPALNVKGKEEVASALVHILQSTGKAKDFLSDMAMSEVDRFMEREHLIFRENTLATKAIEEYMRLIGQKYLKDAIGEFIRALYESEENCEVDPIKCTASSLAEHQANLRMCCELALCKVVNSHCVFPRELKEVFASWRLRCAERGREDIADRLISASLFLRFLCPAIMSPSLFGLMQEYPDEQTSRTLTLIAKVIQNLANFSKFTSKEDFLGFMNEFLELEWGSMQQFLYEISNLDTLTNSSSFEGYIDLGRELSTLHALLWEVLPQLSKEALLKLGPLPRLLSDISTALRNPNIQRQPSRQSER", "values": [{"measurement": "Kd", "result": "210 ± 30", "unit": "nM"}]}
